{"source": "paper PMC3824616", "binders": {"B1": {"name": "phospho-mimetic S116D eNOS mutant, adenovirus-expressed (enzyme)", "chain": "MGNLKSVGQEPGPPCGLGLGLGLGLCGKQGPASPAPEPSRAPAPATPHAPDHSPAPNSPTLTRPPEGPKFPRVKNWELGSITYDTLCAQSQQDGPCTPRCCLGSLVLPRKLQTRPDPGPPPAEQLLSQARDFINQYYSSIKRSGSQAHEERLQEVEAEVASTGTYHLRESELVFGAKQAWRNAPRCVGRIQWGKLQVFDARDCSSAQEMFTYICNHIKYATNRGNLRSAITVFPQRAPGRGDFRIWNSQLVRYAGYRQQDGSVRGDPANVEITELCIQHGWTPGNGRFDVLPLLLQAPDEAPELFVLPPELVLEVPLEHPTLEWFAALGLRWYALPAVSNMLLEIGGLEFSAAPFSGWYMSTEIGTRNLCDPHRYNILEDVAVCMDLDTRTTSSLWKDKAAVEINLAVLHSFQLAKVTIVDHHAATVSFMKHLDNEQKARGGCPADWAWIVPPISGSLTPVFHQEMVNYILSPAFRYQPDPWKGSATKGAGITRKKTFKEVANAVKISASLMGTLMAKRVKATILYASETGRAQSYAQQLGRLFRKAFDPRVLCMDEYDVVSLEHEALVLVVTSTFGNGDPPENGESFAAALMEMSGPYNSSPRPEQHKSYKIRFNSVSCSDPLVSSWRRKRKESSNTDSAGALGTLRFCVFGLGSRAYPHFCAFARAVDTRLEELGGERLLQLGQGDELCGQEEAFRGWAKAAFQASCETFCVGEEAKAAAQDIFSPKRSWKRQRYRLSTQAEGLQLLPGLIHVHRRKMFQATVLSVENLQSSKSTRATILVRLDTAGQEGLQYQPGDHIGICPPNRPGLVEALLSRVEDPPPPTESVAVEQLEKGSPGGPPPSWVRDPRLPPCTLRQALTFFLDITSPPSPRLLRLLSTLAEEPSEQQELETLSQDPRRYEEWKWFRCPTLLEVLEQFPSVALPAPLLLTQLPLLQPRYYSVSSAPNAHPGEVHLTVAVLAYRTQDGLGPLHYGVCSTWLSQLKTGDPVPCFIRGAPSFRLPPDPYVPCILVGPGTGIAPFRGFWQERLHDIESKGLQPAPMTLVFGCRCSQLDHLYRDEVQDAQERGVFGRVLTAFSREPDSPKTYVQDILRTELAAEVHRVLCLERGHMFVCGDVTMATSVLQTVQRILATEGDMELDEAGDVIGVLRDQQRYHEDIFGLTLRTQEVTSRIRTQSFSLQERHLRGAVPWAFDPPGPDTPGP"}}, "biological_target": "human constitutively active c-Src, adenovirus-expressed (human) (UniProt P12931)", "test": "co-IP"}
{"binder": "B1", "values": [{"measurement": "percent reduction of co-immunoprecipitation against WT eNOS", "value": 88, "unit": "%"}]}
